# Experimental data as given in FireProtDB (doi:10.1074/jbc.274.2.717).
# “And” between values parts separate entries of the source, which are not always exact repeats. Equal values may be shown once.
# Settings: Homo sapiens, pH 8.7, Thermal, DSC, reversible: yes, whole UniProt chain shown
protein,measurement,setting,value
"Alpha-2-macroglobulin receptor-associated protein wild type, P30533 (protein) MAPRRVRSFLRGLPALLLLLLFLGPWPAASHGGKYSREKNQPKPSPKRESGEEFRMEKLNQLWEKAQRLHLPPVRLAELHADLKIQERDELAWKKLKLDGLDEDGEKEARLIRNLNVILAKYGLDGKKDARQVTSNSLSGTQEDGLDDPRLEKLWHKAKTSGKFSGEELDKLWREFLHHKEKVHEYNVLLETLSRTEEIHENVISPSDLSDIKGSVLHSRHTELKEKLRSINQGLDRLRRVSHQGYSTEAEFEEPRVIDLWDLAQSANLTDKELEAFREELKHFEAKIEKHNHYQKQLEIAHEKLRHAESVGDGERVSRSREKHALLEGRTKELGYTVKKHLQDLSGRISRARHNEL",Tm,"Gly 20 mM, transition: 2",65.8 °C
same,unfolding enthalpy (calorimetric),"Gly 20 mM, transition: 2",234 kJ/mol
same,unfolding enthalpy (calorimetric),"Glycine 20 mM, transition: 2",188 kJ/mol and 172 kJ/mol and 247 kJ/mol
same,unfolding enthalpy (calorimetric),"Glycine 20 mM, transition: 4",176 kJ/mol and 172 kJ/mol
